In patent US20230203142A1 (published 2023):

Legend:
Experiment in all cases: MST
[1] = target: T1, recombinant human FABP4 (fatty acid binding protein 4) (UniProt P15090 2-132)
T1 chain: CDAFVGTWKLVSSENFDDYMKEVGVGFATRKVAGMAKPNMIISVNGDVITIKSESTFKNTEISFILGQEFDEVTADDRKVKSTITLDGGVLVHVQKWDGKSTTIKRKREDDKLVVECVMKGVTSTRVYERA

[2] = target: human ADK (adenosine kinase), recombinant (UniProt P55263 2-362)
[3] = target: human NDPK-A (nucleoside diphosphate kinase A), full-length recombinant (UniProt P15531 2-152)
Chain of human NDPK-A (nucleoside diphosphate kinase A), full-length recombinant (P15531 other isoform, or with tags, fused parts or gaps): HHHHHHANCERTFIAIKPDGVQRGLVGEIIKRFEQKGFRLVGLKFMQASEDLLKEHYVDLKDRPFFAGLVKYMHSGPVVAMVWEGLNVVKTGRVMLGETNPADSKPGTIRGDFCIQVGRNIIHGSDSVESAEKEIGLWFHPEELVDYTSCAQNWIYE

Chain of human ADK (adenosine kinase), recombinant (P55263 2-362): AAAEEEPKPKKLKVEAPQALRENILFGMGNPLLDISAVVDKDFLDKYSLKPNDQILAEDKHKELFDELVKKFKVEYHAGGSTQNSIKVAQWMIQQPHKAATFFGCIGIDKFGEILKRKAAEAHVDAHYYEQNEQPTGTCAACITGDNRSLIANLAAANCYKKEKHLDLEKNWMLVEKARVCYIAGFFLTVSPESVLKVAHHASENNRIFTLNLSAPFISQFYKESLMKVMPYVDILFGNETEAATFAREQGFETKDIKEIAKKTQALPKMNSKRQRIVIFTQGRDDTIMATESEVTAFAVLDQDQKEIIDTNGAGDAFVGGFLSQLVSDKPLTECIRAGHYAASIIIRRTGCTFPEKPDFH

Kd [1]: 2860 nM | EC50 [2]: 1880 nM | EC50 [3]: 143 nM
B1: CA33 (a-Ab) monoclonal antibody (antibody)
heavy: QSVEESGGRLVTPGTPLTLTCTVSGFSLSTYYMSWVRQAPGKGLEWIGIIYPSGSTYCASWAKGRFTISKASTTVDLKITSPTTEDTATYFCARPDNDGTSGYLSGFGLWGQGLVTVSSAKTTPPSVYPLAPGSAAQTNSMVTLGCLVKGYFPEPVTVTWNSGSLSSGVHTFPAVLQSDLYTLSSSVTVPSSTWPSETVTCNVAHPASSTKVDKKIVPRDC
light: DVVMTQTPASVSEPVGGTVTIKCGASEDISRYLVWYQQKPGQPPKRLIYKASTLASGVPSRFKGSGSGTDFTLTISDLECDDAATYYCQCTYGTYAGSFFYSFGGGTEVVVERTDAAPTVSIFPPSSEQLTSGGASVVCFLNNFYPKDINVKWKIDGSERQNGVLNSWTDQDSKDCTYSMSSTLTLTKDEYERHNSYTCEATHKTSTSPIVKSFNRNEC
